Key:
GST-HbCBF1 [1] = molecular target: T1, GST-HbCBF1 (Hevea brasiliensis, UniProt Q4KP31 1-231); experiment: competition EMSA; 125-fold molar excess cold competitor vs COR15a probe; 10 mM Tris-HCl pH 7.5, 100 mM KCl, 10% glycerol, 1 mM DTT, 0.1% NP-40, 1 mM spermidine, 0.5 ug fish sperm DNA, 4 ug protein, 1 ng probe, 25 C; details: protein: recombinant; tags: N-terminal GST (pGEX-6p-1); blunt
GST-HbCBF1 [2] = molecular target: T1, GST-HbCBF1; experiment: EMSA; 10 mM Tris-HCl pH 7.5, 100 mM KCl, 10% glycerol, 1 mM DTT, 0.1% NP-40, 1 mM spermidine, 0.5 ug fish sperm DNA, 4 ug protein, 1 ng probe, 25 C; details: protein: recombinant; tags: N-terminal GST (pGEX-6p-1); label: 5'-digoxigenin (hot probe); blunt

T1 sequence (Q4KP31 entry or part of it): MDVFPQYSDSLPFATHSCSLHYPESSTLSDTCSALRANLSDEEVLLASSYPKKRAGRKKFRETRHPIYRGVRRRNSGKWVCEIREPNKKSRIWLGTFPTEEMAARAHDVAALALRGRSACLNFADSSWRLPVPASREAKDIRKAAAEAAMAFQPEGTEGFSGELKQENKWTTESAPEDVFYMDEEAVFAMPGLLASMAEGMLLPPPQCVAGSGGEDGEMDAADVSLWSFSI

B1: RD29b (dsDNA)
DNA 1: CTACCGACATGAGTTCCAAAAAA
DNA 2: TTTTTTGGAACTCATGTCGGTAG
Q: Does B1 bind (GST-HbCBF1 [1])?
A: Result: binds

B2: COR15b (dsDNA)
DNA 1: CTGATGGCCGACCTCTTTTTT
DNA 2: AAAAAAGAGGTCGGCCATCAG
Q: Does B2 bind (GST-HbCBF1 [1])?
A: Result: binds

B3: COR15a (dsDNA)
DNA 1: TTTCATGGCCGACCTGCTTTTTT
DNA 2: AAAAAAGCAGGTCGGCCATGAAA
Q: Does B3 bind (GST-HbCBF1 [2])?
A: Result: binds

B4: RD29a (dsDNA)
DNA 1: ATATACTACCGACATGAGTTCT
DNA 2: AGAACTCATGTCGGTAGTATAT
Q: Does B4 bind (GST-HbCBF1 [1])?
A: Result: binds
